The term Kd denotes the equilibrium constant for the complex coming apart. Higher therefore signals weaker binding.

The target in the test is SARS-CoV-2 S protein trimer (with mutations R683A and R685A, His-tag) (SARS-CoV-2) (UniProt P0DTC2). The test is described as follows: ELISA. (An ELISA detects its analyte on a solid surface through an enzyme-linked reagent.)
As to “Human DC-SIGN (Fc-tag) (from UniProt Q9NNX6) (Fc fusion)”, the Kd came out at 192 pM.

“Human DC-SIGNR (Fc-tag) (from UniProt Q9H2X3) (Fc fusion)” yielded a Kd of 986 pM.

Consider “Human MGL (Fc-tag) (from UniProt Q8IUN9) (Fc fusion)”, for which the Kd was 312 pM.

For the origin of these results see article PMC7402034.
